Patent US20090305982A1

What was measured:
[1] = target: cynomolgus IL-4 receptor alpha on peripheral blood lymphocytes (cynomolgus); assay: flow cytometry, cynomolgus peripheral blood lymphocytes, 10 µg/ml
[2] = target: human IL-4 receptor alpha on cells (peripheral blood lymphocytes, primary B cells, TF-1, A549, PBMC) (human) (UniProt P24394); assay: flow cytometry, human peripheral blood lymphocytes, 10 µg/ml
[3] = target: human IL-4 receptor alpha on cells (peripheral blood lymphocytes, primary B cells, TF-1, A549, PBMC) (human) (UniProt P24394); assay: cell-based or functional assay

wildtype tear lipocalin (gene product of pTLPC10) (from UniProt P31025 23-175)
% Positive [1]: 5%
MFI [1]: 1.9
% Positive [2]: 9%
MFI [2]: 3.2
% Positive for STAT-6 phosphorylation, TF-1 cells + IL-4 [3]: 72%
% Positive for STAT-6 phosphorylation, TF-1 cells + IL-13 [3]: 84%
MFI, STAT-6 phosphorylation, TF-1 cells + IL-4 [3]: 13.1
MFI, STAT-6 phosphorylation, TF-1 cells + IL-13 [3]: 18.6
